Test results from patent US20120219547A1.

Legend:
[1] = target: recombinant human tumor necrosis factor-α (human) (UniProt P01375); experiment: SPR, Biacore X100; antibody captured by goat anti-human IgG Fc on CM5 chip, TNFα as analyte
[2] = target: recombinant human tumor necrosis factor-α (human) (UniProt P01375); experiment: cell-based or functional assay

Chain of recombinant human tumor necrosis factor-α (human) (P01375 77-233 limits assumed): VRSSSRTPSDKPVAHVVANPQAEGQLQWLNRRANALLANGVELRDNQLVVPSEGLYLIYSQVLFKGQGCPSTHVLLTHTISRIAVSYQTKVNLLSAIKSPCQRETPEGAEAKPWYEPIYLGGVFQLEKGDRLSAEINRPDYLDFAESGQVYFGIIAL

Work on “Humira (adalimumab, purchased from Abbott Laboratories) (antibody)” yielded a Ka [1] of 9.3e+09 M⁻¹, a Kd [1] of 0.108 nM and an EC50(ng/mL), neutralization of TNFα killing effect on L929 cell [2] of 19.1 ng/mL. For the same substance, the IC50 (concentration at which 50% of the rhTNFα toxicity to L929 cells can be neutralized) [2] was 0.01 to 0.04 mg/L.
